Test results from paper doi:10.1101/2025.08.28.672867, “Catalytic pocket of Clr4 (Suv39h) methyltransferase serves as a substrate receptor for Cullin 4-dependent histone H3 ubiquitination” (bioRxiv, 2025).

T1: 6×His-MBP-Raf1 (S. pombe, UniProt O74910 1-638)
T1 construct: Raf1 (Rik1-associated factor 1, DDB2 homolog), S. pombe; Expressed from one bacmid with Raf2, Rik1 and Cul4 and purified with them; A TEV site lies between MBP and Raf1; also called Raf1-MBP; Raf1 (DDB2 homolog); source: Hi5 insect cells (baculovirus), purified (Ni-NTA, amylose, SEC) together with Raf2, Rik1 and Cul4; not shown: His6, N-terminal, kept; MBP, N-terminal, kept
T1 sequence (looked up): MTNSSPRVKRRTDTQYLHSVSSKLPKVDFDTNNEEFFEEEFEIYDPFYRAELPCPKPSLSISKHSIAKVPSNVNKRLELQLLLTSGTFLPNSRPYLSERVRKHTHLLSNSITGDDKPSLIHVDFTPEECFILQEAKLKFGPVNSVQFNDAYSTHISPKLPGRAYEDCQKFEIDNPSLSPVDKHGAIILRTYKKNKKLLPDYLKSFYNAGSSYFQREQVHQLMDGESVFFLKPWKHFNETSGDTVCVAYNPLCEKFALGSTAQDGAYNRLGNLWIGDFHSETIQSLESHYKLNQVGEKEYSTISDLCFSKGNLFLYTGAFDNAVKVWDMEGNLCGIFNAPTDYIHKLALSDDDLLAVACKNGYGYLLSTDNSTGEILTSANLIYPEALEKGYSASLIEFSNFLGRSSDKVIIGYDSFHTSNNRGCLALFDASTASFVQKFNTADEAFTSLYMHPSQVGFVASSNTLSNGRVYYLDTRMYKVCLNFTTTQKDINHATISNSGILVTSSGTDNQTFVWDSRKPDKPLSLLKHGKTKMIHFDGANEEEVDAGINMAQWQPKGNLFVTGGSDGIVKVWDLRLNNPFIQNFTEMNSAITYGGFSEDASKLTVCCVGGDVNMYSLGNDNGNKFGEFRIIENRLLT

B1: Clr4 ΔSET (amino acids 1–192) (domain or fragment, S. pombe, UniProt O60016 1-192, looked up)
chain: MSPKQEEYEVERIVDEKLDRNGAVKLYRIRWLNYSSRSDTWEPPENLSGCSAVLAEWKRRKRRLKGSNSDSDSPHHASNPHPNSRQKHQHQTSKSVPRSQRFSRELNVKKENKKVFSSQTTKRQSRKQSTALTTNDTSIILDDSLHTNSKKLGKTRNEVKEESQKRELVSNSIKEATSPKTSSILTKPRNPS
notes: Clr4, S. pombe, chromodomain and hinge region, amino acids 1-192; also called GST-Clr4 ΔSET
B2: Clr4N-Set2 (Clr4 chromodomain-hinge fused to the SET domain of S. pombe Set2) (other, UniProt O60016 1-192, looked up)
chain: MSPKQEEYEVERIVDEKLDRNGAVKLYRIRWLNYSSRSDTWEPPENLSGCSAVLAEWKRRKRRLKGSNSDSDSPHHASNPHPNSRQKHQHQTSKSVPRSQRFSRELNVKKENKKVFSSQTTKRQSRKQSTALTTNDTSIILDDSLHTNSKKLGKTRNEVKEESQKRELVSNSIKEATSPKTSSILTKPRNPSLFHHLDSAKDKALTTFEEIQECQYASANIGKPPENEAMICDCRPHWVDGVNVACGHGSNCINRMTSIECTDEDNVCGPSCQNQRFQRHEFAKVDVFLTEKKGFGLRADANLPKDTFVYEYIGEVIPEQKFRKRMRQYDSEGIKHFYFMMLQKGEYIDATKRGSLARFCNHSCRPNCYVDKWMVGDKLRMGIFCKRDIIRGEELTFDYNVDRYGAQAQPCYCGEPCCVGYIGGKTQTEAQSK
notes: Clr4, S. pombe, chromodomain and hinge region, amino acids 1-192 (GST-Clr4 ΔSET); Set2 H3K36 methyltransferase, S. pombe, SET domain, amino acids 90-330, fused to the C-terminus of Clr4 ΔSET; also called GST-Clr4 CD-Hinge-Set2; GST-Clr4N-Set2

Tests used:
6×His-MBP-Raf1 = biological target: T1, 6×His-MBP-Raf1; test: pull-down; MBP-Raf1 held on amylose resin and incubated with Clr4 FL or fragments (legend: 'MBP pulldown assays of CLRC subunits'); 1:1 molar ratio, 30 min on ice, resin 1 h at 4 °C; wash 20 mM HEPES pH 7.5, 150 mM NaCl, 0.02% Triton X-100; SDS-PAGE; settings: both partners purified
[1] = biological target: T2, CLRC complex lacking Clr4 (CLRC^-Clr4): 6×His-MBP-Raf1, Raf2, Rik1 and Cul4 (S. pombe, UniProt O74910 1-638; O74560 1-636; Q10426 1-1040; O14122 1-734); test: as above; settings: both partners purified
T2 construct: Raf1 (DDB2 homolog), S. pombe; as the chain of m2; Raf2, S. pombe; as the chain of m3; Rik1 (DDB1 homolog), S. pombe; as the chain of m4; Cullin 4, S. pombe; as the chain of m5; also called four-subunit CLRC complex; CLRC minus Clr4; source: Hi5 insect cells (baculovirus, single bacmid), purified (Ni-NTA, amylose, SEC on Superose 6 Increase); not shown: His6, N-terminal, kept; MBP, N-terminal, …
T2 sequence (O74560 whole entry, chain 2 of 3): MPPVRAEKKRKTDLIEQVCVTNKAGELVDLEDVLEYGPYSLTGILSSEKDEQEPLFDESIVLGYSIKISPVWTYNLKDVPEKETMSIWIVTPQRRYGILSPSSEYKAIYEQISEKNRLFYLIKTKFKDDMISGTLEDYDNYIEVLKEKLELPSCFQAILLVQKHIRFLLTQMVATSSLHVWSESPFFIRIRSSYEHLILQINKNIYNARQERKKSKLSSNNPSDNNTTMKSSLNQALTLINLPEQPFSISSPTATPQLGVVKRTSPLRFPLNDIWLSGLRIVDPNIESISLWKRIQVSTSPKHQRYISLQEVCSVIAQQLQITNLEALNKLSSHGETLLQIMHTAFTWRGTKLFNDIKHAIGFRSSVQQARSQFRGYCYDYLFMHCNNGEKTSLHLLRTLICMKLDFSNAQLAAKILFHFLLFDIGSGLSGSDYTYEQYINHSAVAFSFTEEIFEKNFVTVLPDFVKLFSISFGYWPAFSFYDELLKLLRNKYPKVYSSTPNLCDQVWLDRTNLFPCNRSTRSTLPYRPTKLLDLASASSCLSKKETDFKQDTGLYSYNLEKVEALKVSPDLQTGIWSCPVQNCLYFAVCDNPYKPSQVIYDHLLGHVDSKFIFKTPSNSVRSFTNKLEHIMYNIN
T2 sequence (Q10426 whole entry, chain 3 of 3): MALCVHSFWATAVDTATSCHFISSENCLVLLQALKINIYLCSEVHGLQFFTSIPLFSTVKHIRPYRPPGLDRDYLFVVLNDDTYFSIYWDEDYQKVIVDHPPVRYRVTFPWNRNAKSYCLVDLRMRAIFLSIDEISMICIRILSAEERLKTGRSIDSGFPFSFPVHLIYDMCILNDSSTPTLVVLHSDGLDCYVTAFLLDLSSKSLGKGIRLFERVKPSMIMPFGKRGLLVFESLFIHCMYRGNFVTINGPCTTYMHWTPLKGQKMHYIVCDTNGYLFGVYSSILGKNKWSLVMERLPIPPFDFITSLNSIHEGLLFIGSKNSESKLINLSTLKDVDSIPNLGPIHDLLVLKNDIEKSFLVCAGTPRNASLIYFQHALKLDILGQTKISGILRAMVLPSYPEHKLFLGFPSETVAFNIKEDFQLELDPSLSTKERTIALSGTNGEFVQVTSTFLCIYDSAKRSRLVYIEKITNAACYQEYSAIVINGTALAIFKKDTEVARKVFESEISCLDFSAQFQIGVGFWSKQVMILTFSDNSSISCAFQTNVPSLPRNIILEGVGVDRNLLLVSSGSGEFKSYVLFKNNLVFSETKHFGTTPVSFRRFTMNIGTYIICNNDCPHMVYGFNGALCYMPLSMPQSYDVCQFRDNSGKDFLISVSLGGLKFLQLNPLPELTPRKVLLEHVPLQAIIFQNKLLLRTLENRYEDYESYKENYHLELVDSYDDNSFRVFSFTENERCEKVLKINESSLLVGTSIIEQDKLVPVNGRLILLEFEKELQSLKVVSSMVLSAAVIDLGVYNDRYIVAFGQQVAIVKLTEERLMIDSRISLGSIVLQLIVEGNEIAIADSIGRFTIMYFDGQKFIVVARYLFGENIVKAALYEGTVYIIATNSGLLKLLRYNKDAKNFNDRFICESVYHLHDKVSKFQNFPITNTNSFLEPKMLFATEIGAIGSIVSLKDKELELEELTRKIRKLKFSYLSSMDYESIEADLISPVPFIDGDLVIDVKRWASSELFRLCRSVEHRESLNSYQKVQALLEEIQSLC
T2 sequence (O14122 whole entry, chain 4 of 3): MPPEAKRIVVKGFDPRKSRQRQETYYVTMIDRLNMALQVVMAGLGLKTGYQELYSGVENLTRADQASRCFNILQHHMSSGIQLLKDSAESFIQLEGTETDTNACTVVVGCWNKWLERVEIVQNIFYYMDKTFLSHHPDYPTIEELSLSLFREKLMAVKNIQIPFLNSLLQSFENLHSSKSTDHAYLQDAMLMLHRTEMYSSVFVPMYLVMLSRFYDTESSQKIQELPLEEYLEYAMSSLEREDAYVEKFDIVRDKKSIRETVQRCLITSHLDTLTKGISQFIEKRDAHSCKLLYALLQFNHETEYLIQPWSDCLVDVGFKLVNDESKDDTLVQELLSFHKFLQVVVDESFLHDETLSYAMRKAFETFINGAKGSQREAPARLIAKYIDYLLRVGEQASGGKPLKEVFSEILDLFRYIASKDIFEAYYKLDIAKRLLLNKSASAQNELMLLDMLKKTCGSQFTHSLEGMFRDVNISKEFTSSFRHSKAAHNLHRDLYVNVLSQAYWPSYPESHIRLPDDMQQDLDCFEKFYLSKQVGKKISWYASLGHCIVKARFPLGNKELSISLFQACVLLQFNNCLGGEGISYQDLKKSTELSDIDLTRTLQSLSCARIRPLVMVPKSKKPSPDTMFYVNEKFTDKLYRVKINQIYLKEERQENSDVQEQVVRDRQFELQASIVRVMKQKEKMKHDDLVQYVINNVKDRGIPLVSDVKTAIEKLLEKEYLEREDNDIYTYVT

Binder	binding result (6×His-MBP-Raf1)	binding result [1]
B1	binds	
B2	binds	binds
